In the supplement of paper PMC10567573:

B1: FCHO1 (parent)
chain: FTSSPSPFSSSSPENVEDSGLDSP

Variants of: B1
Assay: protein stability index of a GFP-peptide fusion (GPS, HEK-293T) (PSI 1-6); higher = more stable
Conditions: c terminus: a fixed tail appended
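Further: lentivirally expressed fusions sorted by FACS into six bins by GFP to DsRed ratio, PSI derived from sequencing read proportions per bin multiplied by bin number.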

Variant | protein stability index
FTSSPSPFSSSSPENVEDSGLDSD | 1.85
FTSSPSPFSSSSPENVEDSGLDSW | 1.54
FTSSPSPFSSNSPENVEDSGLDSP | 1.55
FTSSPSPFSSTSPENVEDSGLDSP | 1.67
FTSSPSPFSSFSPENVEDSGLDSP | 1.62
FTSSPSPFSSMSPENVEDSGLDSP | 1.76
FTSSPSPFSSYSPENVEDSGLDSP | 2.25
FTSSPSPFSSPSPENVEDSGLDSP | 1.86
FTSSPSPFSSHSPENVEDSGLDSP | 1.83
FTSSPSPFSSSSPENVLDSGLDSP | 1.88
FTSSPSPFSSSSPENVPDSGLDSP | 1.8
FTSSPSPFSSSSPENVQDSGLDSP | 1.85
FTSSPSPFSSSSPENVRDSGLDSP | 1.86
FTSSPSPFSSSSPENVGDSGLDSP | 1.96
FTSSPSPFSSSSPENVSDSGLDSP | 2.53
FTSSPSPFSSSSPENVKDSGLDSP | 1.78
FTSSPSPFSSSSPENVVDSGLDSP | 1.3
FTSSPSPFSSSSPENVDDSGLDSP | 1.84
FTSSSSPFSSSSPENVEDSGLDSP | 2.67
FTSSWSPFSSSSPENVEDSGLDSP | 1.87
FTSSYSPFSSSSPENVEDSGLDSP | 1.9
FTSSNSPFSSSSPENVEDSGLDSP | 2.09
FTSSPSPFSSSSPENVEDSGNDSP | 2.28
FTSSPSPFSSSSPENVEDSGSDSP | 1.81

Variant | protein stability index
FTSSPSPFSSSSPENVEDSGGDSP | 2.12
FTSSPSPFSSSSPENVEDSGTDSP | 2.52
FTSSPSPFSSSSPENVEDSGYDSP | 2.19
FTSSPSPFSSSSVENVEDSGLDSP | 2.28
FTSSPSPFSSSSSENVEDSGLDSP | 2.13
FTSSPSPFSSSSHENVEDSGLDSP | 2.29
FTSSPSPFSSSSDENVEDSGLDSP | 2.1
FTSSPSPFSSSSEENVEDSGLDSP | 2.44
FTSSPSPFSSSSPENVEDSFLDSP | 2.32
FTSSPSPFSSSSPENVEDSMLDSP | 2.07
FTSSPSPFSSSSPENVEDSSLDSP | 2.09
FTSSPSPFSSSSPENVEDSKLDSP | 2.87
FTSSPSPFSSSSPENVEDSDLDSP | 1.88
FTSSPSNFSSSSPENVEDSGLDSP | 1.96
FTSSPSAFSSSSPENVEDSGLDSP | 2.25
FTSSPSGFSSSSPENVEDSGLDSP | 2.89
FTSSPSYFSSSSPENVEDSGLDSP | 2.49
FTSSPSEFSSSSPENVEDSGLDSP | 2.79
FTSSPSVFSSSSPENVEDSGLDSP | 2.24
FTSSPSRFSSSSPENVEDSGLDSP | 2.09
FTSSPSKFSSSSPENVEDSGLDSP | 2.28
FTSSPSSFSSSSPENVEDSGLDSP | 2.25
FTSSPSIFSSSSPENVEDSGLDSP | 1.74
FTSGPSPFSSSSPENVEDSGLDSP | 2

Variant | protein stability index
FTSCPSPFSSSSPENVEDSGLDSP | 2.35
FTSDPSPFSSSSPENVEDSGLDSP | 2.03
NTSSPSPFSSSSPENVEDSGLDSP | 5.29
RTSSPSPFSSSSPENVEDSGLDSP | 5.69
YTSSPSPFSSSSPENVEDSGLDSP | 1.88
MTSSPSPFSSSSPENVEDSGLDSP | 5.34
LTSSPSPFSSSSPENVEDSGLDSP | 5.78
FTSSPSPFSSSGPENVEDSGLDSP | 2.36
FTSSPSPFSSSYPENVEDSGLDSP | 1.75
FTSSPSPFSSSHPENVEDSGLDSP | 3.01
FTSSPSPFSSSQPENVEDSGLDSP | 2.26
FTSSPSPFSSSKPENVEDSGLDSP | 1.56
FTSSPSPFSSSSPENLEDSGLDSP | 1.7
FTSSPSPFSSSSPENTEDSGLDSP | 2.52
FTSSPSPFSSSSPENYEDSGLDSP | 2.03
FTSSPSPFSSSSPENGEDSGLDSP | 2.75
FTSSPSPFSDSSPENVEDSGLDSP | 1.93
FTSSPSPFSRSSPENVEDSGLDSP | 2.56
FTSSPSPFSNSSPENVEDSGLDSP | 2.3
FTSSPSPFSISSPENVEDSGLDSP | 2.7
FTSSPSPASSSSPENVEDSGLDSP | 5.11
FTSSPSPHSSSSPENVEDSGLDSP | 5.05
FTSSPSPLSSSSPENVEDSGLDSP | 3.74
FTSSPSPDSSSSPENVEDSGLDSP | 5.5

Variant | protein stability index
FTSSPSPFSSSSPENVEDSGLHSP | 2.29
FTSSPSPFSSSSPENVEDSGLQSP | 1.83
FTSSPSPFSSSSPENVEDSGLSSP | 1.78
FTSSPSPFSSSSPENVEDSGLNSP | 2.96
FTSSPSPFSSSSPENVEDSGLKSP | 1.74
FTSSPSPFSSSSPENVEDSGLISP | 2.11
FMSSPSPFSSSSPENVEDSGLDSP | 3.48
FSSSPSPFSSSSPENVEDSGLDSP | 2.86
FVSSPSPFSSSSPENVEDSGLDSP | 2.93
FDSSPSPFSSSSPENVEDSGLDSP | 4.91
FCSSPSPFSSSSPENVEDSGLDSP | 2.02
FTSSPSPFSSSSPENVEHSGLDSP | 2.7
FTSSPSPFSSSSPENVERSGLDSP | 1.6
FTSSPSPFSSSSPENVEESGLDSP | 1.92
FTSSPSPFSSSSPENVECSGLDSP | 2.17
FTSSPSPFSSSSPENVEVSGLDSP | 1.73
FTSSPSPFSSSSPENVENSGLDSP | 2.42
FTSSPSPFSSSSPENVEQSGLDSP | 1.93
FTNSPSPFSSSSPENVEDSGLDSP | 2.71
FTISPSPFSSSSPENVEDSGLDSP | 3.05
FTGSPSPFSSSSPENVEDSGLDSP | 1.38
FTDSPSPFSSSSPENVEDSGLDSP | 2.7
